From patent US20080050387A1 (published 2008)

B1: human checkpoint protein hRad9, full length (other)
chain: MKCLVTGGNVKVLGKAVHSLSRIGDELYLEPLEDGLSLRTVNSSRSAYACFLFAPLFFQQYQAATPGQDLLRCKILMKSFLSVFRSLAMLEKTVEKCCISLNGRSSRLVVQLHCKFGVRKTHNLSFQDCESLQAVFDPASCPHMLRAPARVLGEAVLPFSPALAEVTLGIGRGRRVILRSYHEEEADSTAKAMVTEMCLGEEDFQQLQAQEGVAITFCLKEFRGLLSFAESANLNLSIHFDAPGRPAIFTIKDSLLDGHFVLATLSDTDSHSQDLGSPERHQPVPQLQAHSTPHPDDFANDDIDSYMIAMETTIGNEGSRVLPSISLSPGPQPPKSPGPHSEEEDEAEPSTVPGTPPPKKFRSLFFGSILAPVRSPQGPSPVLAEDSEGEG
notes: Used as GST-hRad9 on beads, as GAL4 DBD fusion (mammalian two-hybrid), as Flag-hRad9 in 293T cells and as endogenous hRad9 of CWR22R cells; also called FL-hRad9; GST-hRad9
B2: f-hRad9, fragment of hRad9 isolated from yeast (aa 327-391) (other)
chain: LSPGPQPPKSPGPHSEEEDEAEPSTVPGTPPPKKFRSLFFGSILAPVRSPQGPSPVLAEDSEGEG
B3: AR DNA-binding domain (AR DBD) (receptor)
chain: KTCLICGDEASGCHYGALTCGSCKVFFKRAAEGKQKYLCASRNDCTIDKFRRKNCPSCRLRKCYEAG
notes: also called GAL4-AR-DBD
B4: testicular receptor 2 (TR2) (receptor)
chain: MATIEEIAHQIIEQQMGEIVTEQQTGQKIQIVTALDHNTQGKQFILTNHDGSTPSKVILARQDSTPGKVFLTTPDAAGVNQLFFTTPDLSAQHLQLLTDNSPDQGPNKVFDLCVVCGDKASGRHYGAVTCEGCKGFFKRSIRKNLVYSCRGSKDCIINKHHRNRCQYCRLQRCIAFGMKQDSVQCERKPIEVSREKSSNCAASTEKIYIRKDLRSPLTATPTFVTDSESTRSTGLLDSGMFMNIHPSGVKTESAVLMTSDKAESCQGDLSTLANVVTSLANLGKTKDLSQNSNEMSMIESLSNDDTSLCEFQEMQTNGDVSRAFDTLAKALNPGESTACQSSVAGMEGSVHLITGDSSINYTEKEGPLLSDSHVAFRLTMPSPMPEYLNVHYIGESASRLLFLSMHWALSIPSFQALGQENSISLVKAYWNELFTLGLAQCWQVMNVATILATFVNCLHNSLQQDAKVIAALIHFTRRAITDL
notes: hSos fusion (pSos-TR2) in yeast; also called pSos-TR2

Experiments:
[1] = target: T1, VP16-AR containing the residues 37 to 919 (human, UniProt P10275 37-920); experiment: mammalian two-hybrid in PC-3 cells, GAL4 DBD-FL-hRad9 + VP16-AR; inhibited by hydroxyflutamide
T1 construct: also called pCMX-VP16-AR; full length AR fused to VP16
T1 sequence: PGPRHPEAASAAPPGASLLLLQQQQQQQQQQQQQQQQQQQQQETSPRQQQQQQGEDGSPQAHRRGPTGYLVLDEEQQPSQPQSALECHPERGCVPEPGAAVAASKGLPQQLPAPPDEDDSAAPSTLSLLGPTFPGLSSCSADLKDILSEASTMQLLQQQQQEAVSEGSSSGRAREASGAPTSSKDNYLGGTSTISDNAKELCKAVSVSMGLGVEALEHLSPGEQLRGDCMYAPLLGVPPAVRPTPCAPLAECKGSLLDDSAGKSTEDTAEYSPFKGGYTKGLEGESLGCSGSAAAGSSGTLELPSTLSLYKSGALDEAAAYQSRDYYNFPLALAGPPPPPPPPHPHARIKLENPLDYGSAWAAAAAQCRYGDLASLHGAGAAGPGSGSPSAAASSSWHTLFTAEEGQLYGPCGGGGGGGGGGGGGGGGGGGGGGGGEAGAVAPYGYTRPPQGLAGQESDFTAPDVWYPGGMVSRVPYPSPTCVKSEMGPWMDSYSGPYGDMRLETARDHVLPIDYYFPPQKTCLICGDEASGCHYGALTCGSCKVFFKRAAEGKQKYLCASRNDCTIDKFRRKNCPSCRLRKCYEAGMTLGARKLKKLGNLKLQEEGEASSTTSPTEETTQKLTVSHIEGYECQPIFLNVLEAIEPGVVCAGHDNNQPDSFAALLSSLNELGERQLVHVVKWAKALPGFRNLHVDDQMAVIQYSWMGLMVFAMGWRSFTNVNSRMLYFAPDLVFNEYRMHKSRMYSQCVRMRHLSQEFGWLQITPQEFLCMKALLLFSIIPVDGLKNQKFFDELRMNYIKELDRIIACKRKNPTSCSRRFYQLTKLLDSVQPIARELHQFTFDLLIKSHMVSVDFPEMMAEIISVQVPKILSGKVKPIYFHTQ

[2] = target: T2, AR N-terminus, full length ARN (ARN1-556) (human, UniProt P10275 1-557); experiment: GST pull-down: GST-hRad9 with 35S-labeled AR domains
T2 sequence: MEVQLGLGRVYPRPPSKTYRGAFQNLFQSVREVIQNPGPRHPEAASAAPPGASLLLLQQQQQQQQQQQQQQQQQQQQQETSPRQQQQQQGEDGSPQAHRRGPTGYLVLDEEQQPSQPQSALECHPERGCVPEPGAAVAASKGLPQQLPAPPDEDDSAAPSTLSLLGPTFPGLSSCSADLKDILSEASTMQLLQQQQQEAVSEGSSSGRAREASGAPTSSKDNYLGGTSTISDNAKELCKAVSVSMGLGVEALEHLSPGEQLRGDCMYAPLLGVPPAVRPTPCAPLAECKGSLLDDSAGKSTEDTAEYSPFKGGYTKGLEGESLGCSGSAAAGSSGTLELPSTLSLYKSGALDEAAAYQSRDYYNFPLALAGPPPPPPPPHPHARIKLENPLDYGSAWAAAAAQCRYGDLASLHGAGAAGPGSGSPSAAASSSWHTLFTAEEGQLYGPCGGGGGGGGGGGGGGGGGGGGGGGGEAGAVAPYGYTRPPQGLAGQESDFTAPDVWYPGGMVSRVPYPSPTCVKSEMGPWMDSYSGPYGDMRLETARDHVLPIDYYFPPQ

[3] = target: T3, estrogen receptor α (ERα) (UniProt P03372 1-595); experiment: mammalian two-hybrid in PC-3 cells, pM-f-hRad9 + VP16-ERα, in the presence of estrogen
T3 construct: also called VP16-ERα; ERcc
T3 sequence: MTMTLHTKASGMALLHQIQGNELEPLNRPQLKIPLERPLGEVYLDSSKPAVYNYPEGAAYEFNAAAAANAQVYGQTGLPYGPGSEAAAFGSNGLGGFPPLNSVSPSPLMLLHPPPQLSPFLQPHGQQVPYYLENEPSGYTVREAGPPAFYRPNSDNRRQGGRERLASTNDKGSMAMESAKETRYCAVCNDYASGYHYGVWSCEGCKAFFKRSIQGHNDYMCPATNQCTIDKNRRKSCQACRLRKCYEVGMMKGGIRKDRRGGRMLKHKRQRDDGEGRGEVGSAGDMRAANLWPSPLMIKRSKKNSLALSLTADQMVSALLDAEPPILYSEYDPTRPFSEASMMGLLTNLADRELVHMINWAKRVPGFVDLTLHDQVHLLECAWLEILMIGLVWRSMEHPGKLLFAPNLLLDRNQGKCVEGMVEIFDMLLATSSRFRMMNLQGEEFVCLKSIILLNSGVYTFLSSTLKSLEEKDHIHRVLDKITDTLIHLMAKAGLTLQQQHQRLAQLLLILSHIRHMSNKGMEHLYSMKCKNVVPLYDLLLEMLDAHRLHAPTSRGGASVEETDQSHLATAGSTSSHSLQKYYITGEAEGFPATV

[4] = target: T4, AR DBD-LBD (human, UniProt P10275 557-920); experiment: cell-based or functional assay
T4 sequence: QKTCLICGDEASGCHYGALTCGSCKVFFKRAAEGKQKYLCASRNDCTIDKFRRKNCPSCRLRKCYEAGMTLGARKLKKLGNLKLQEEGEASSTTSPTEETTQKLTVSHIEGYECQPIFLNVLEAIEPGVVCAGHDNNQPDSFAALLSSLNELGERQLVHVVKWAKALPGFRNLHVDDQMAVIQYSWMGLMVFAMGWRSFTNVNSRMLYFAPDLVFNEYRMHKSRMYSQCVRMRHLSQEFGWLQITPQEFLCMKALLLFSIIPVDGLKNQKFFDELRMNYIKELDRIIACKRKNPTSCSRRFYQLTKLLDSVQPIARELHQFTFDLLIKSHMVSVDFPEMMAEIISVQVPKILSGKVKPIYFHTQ

[5] = target: T5, vitamin D receptor (VDR) (UniProt P11473 1-427); experiment: mammalian two-hybrid in PC-3 cells, pM-f-hRad9 + VP16-VDR
T5 construct: also called VP16-VDR; VP 16-VDR
T5 sequence: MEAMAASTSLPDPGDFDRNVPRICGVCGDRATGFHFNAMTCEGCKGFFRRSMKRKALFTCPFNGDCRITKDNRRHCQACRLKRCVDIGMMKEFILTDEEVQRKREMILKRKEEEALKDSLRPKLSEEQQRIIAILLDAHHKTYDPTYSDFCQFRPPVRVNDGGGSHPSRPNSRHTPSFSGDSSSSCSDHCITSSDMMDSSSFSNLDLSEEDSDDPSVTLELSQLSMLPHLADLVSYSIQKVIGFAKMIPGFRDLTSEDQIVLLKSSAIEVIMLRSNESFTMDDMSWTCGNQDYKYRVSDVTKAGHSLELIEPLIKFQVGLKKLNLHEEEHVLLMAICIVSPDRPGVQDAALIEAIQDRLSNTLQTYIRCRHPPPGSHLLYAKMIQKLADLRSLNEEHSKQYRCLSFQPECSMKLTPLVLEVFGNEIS

[6] = target: B3; experiment: yeast two-hybrid (AH109), GAL4-AR-DBD + f-hRad9 fused to an activation domain, 10 nM DHT
[7] = target: B1; experiment: GST pull-down: GST-hRad9 with 35S-labeled AR domains
[8] = target: T6, ARA67 clone of the CytoTrap screen, amino acids 20-585 of PAT1 (pMyr-ARA67) (Homo sapiens, UniProt Q92624 20-585); experiment: CytoTrap Sos yeast two-hybrid, growth of cdc25H on SD/Gal(-LU) at 37° C
T6 construct: The clone matched the DNA encoding aa 20-585 of PAT1 at 99.6% identity; also called pMyr-ARA67/PAT1
T6 sequence: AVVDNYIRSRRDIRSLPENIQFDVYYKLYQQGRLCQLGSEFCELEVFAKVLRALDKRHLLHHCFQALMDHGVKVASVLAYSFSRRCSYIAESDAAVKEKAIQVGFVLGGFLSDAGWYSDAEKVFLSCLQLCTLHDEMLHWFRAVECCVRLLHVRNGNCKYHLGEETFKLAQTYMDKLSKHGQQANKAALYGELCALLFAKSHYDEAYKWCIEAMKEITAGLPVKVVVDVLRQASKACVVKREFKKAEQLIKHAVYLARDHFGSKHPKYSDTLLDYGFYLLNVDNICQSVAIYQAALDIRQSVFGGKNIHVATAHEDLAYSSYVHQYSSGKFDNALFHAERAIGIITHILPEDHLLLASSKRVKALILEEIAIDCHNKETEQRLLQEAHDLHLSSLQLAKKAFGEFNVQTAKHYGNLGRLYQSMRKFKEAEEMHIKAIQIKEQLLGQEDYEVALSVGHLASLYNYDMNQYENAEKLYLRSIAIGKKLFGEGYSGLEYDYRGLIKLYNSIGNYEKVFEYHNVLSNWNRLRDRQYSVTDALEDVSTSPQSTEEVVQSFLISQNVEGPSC
Method: The bait and library constructs were co-transformed into yeast strain cdc25H. […] Only the clones that grow out on SD/Gal (−LU) plates but not on SD/Glu (−LU) plates at 37° C. are interaction positive ones.

B1
binding result [1]: binds | binding result [2]: no binding

B2
binding result [3]: no binding | reporter activity (yeast two-hybrid, liquid β-gal assay, 10 nM DHT) [4]: 10 fold | binding result [5]: no binding | binding result [6]: no binding

B3
binding result [7]: no binding

B4
binding result [8]: no binding
